Sequences and labels used below:
B1: ACCTAC (AC-I) (dsDNA)
DNA 1: ACATTGGGCGAGAAAAGCTGATCCCCACCTACCCGGGCTATCTCCCCCTCCTCCTCCGATCTG
DNA 2: CAGATCGGAGGAGGAGGGGGAGATAGCCCGGGTAGGTGGGGATCAGCTTTTCTCGCCCAATGT
B2: ACCTGC (AC-I mutant, A5G) (dsDNA)
DNA 1: B1 DNA 1 with A31G
DNA 2: B1 DNA 2 with T33C
B3: ACCGAC (AC-I mutant, T4G) (dsDNA)
DNA 1: B1 DNA 1 with T30G
DNA 2: B1 DNA 2 with A34C
B4: ACCACA (dsDNA)
DNA 1: B1 DNA 1 with T30A, A31C, C32A
DNA 2: B1 DNA 2 with G32T, T33G, A34T
B5: ACCATA (dsDNA)
DNA 1: B1 DNA 1 with T30A, A31T, C32A
DNA 2: B1 DNA 2 with G32T, T33A, A34T
B6: ACCTAG (AC-I mutant, C6G) (dsDNA)
DNA 1: B1 DNA 1 with C32G
DNA 2: B1 DNA 2 with G32C
B7: ACCAAA (dsDNA)
DNA 1: B1 DNA 1 with T30A, C32A
DNA 2: B1 DNA 2 with G32T, A34T
B8: ACCAAC (dsDNA)
DNA 1: B1 DNA 1 with T30A
DNA 2: B1 DNA 2 with A34T
B9: ACCACC (dsDNA)
DNA 1: B1 DNA 1 with T30A, A31C
DNA 2: B1 DNA 2 with T33G, A34T
B10: ACCAAT (dsDNA)
DNA 1: B1 DNA 1 with T30A, C32T
DNA 2: B1 DNA 2 with G32A, A34T
B11: NBS (non-binding site, GAGACC) (dsDNA)
DNA 1: B1 DNA 1 with A27G, C28A, C29G, T30A, A31C
DNA 2: B1 DNA 2 with T33G, A34T, G35C, G36T, T37C

Positions count from the first letter of the chain named. Names and notes keep the numbering of the source.

T1 sequence (Q8VZQ2 whole entry, the tested form may be a part): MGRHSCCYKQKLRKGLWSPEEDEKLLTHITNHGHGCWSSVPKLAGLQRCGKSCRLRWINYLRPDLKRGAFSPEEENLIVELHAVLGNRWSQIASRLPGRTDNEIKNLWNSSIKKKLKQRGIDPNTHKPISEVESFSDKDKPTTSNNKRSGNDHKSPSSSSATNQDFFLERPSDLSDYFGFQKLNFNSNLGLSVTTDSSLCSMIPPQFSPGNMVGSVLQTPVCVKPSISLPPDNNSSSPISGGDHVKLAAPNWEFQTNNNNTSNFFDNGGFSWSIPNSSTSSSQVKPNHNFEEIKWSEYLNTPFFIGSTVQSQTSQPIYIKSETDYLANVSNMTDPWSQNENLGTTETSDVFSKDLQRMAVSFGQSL

The first data set addresses T1, AtMYB61 (Arabidopsis thaliana, UniProt Q8VZQ2 1-366). Kind of data set: filter binding; Buffer, salt, pH and temperature not stated (filter binding per Hall and Kranz; EMSA per earlier work); filter binding with 1065 nM probe (124.41 ng, 60 bp) in. Conditions: protein: recombinant; tags: pET15b (NdeI/BamHI) fusion. A general note: Mobility shift assays separate free from complexed probe on a gel.
As a reminder, the Kd is the constant that tells how readily two partners part at equilibrium. As for B1, the dissociation constant (Kd) was 9.12 nM. On to B2, for which the Kd is 79.7 nM.

With B3, the Kd came out at 719 nM.

With B4, the Kd turned out to be 80.8 nM. On to B5, for which the Kd was 18.3 nM. As for B6, the Kd turned out to be 56 nM. On the same count and under the same terms, in the case of B7 it was 16.8 nM; in that of B8, 73.7 nM; in that of B9, 690 nM. As to B10, the Kd turned out to be 12.1 nM.

The target of a further data set is T1, AtMYB61. Kind of data set: EMSA; 5E-08 M protein; Buffer, salt, pH and temperature not stated (filter binding per Hall and Kranz; EMSA per earlier work); filter binding with 1065 nM probe (124.41 ng, 60 bp) in. The settings on record: protein: recombinant; tags: pET15b (NdeI/BamHI) fusion.
Turning to B11, the binding result is on record as “no binding”.

Source of the values: article PMC3669277, “Interactions between the R2R3-MYB Transcription Factor, AtMYB61, and Target DNA Binding Sites”.
